Where two headings read alike, the source gives them in different places. Bounds are passed on as bounds.

Here are results for eleven molecules from patent US20230257454A1 (STAIDSON BEIJING BIOPHARMACEUTICALS, published 2023).

In assay [1] the target is T1, human C5a (source not stated) (human, UniProt P01031 678-751).
T1 sequence: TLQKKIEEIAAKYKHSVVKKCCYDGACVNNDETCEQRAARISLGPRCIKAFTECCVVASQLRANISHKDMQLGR
Nature of the assay: cell-based or functional assay.

Assay [2] addresses T1, human C5a (source not stated). Nature of the assay: cell-based or functional assay. This is another data set of the same source.
In assay [3] the target is T2, C5a-R40A.
T2 single chain: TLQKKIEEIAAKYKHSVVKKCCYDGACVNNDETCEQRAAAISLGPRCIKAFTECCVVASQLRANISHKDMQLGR
Nature of the assay: ELISA on the coated C5a protein, antibody titrated, OD410.

Another assay addresses T3, C5a-E32A.
T3 single chain: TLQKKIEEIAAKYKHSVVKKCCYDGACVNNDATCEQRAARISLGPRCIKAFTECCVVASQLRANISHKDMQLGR
The description is as above.

The target of assay [4] is T4, C5a-T33A.
T4 single chain: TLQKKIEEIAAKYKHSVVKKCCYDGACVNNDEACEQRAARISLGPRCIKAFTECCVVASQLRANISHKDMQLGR
The description is as above.

For assay [5], the target named is T5, C5a-Q36A.
T5 single chain: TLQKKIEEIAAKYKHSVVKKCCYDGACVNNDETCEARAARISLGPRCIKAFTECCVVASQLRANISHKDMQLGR
Described as above.

The target of a further assay is T6, human recombinant C5a (human, UniProt P01031 678-751).
T6 construct: Full-length human C5a; also called rC5a; human C5a
T6 sequence: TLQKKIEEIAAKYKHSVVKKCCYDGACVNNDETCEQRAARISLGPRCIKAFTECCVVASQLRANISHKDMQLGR
Nature of the assay: ELISA, plate coated with human rC5a, scFv titrated, OD410.

Assay [6] concerns the target T7, native full-length human complement component C5 (human, UniProt P01031 19-673; P01031 678-1676).
T7 construct: mature; The native protein has two disulfide-linked chains (alpha and beta) made from one precursor; also called human native C5
Nature of the assay: SPR (Biacore T200), antibody on CM5 chip, antigen 0-10 nM; SPR (Biacore T200), Cab05-IgG4 on CM5 chip, C5 at 0-10 nM: no signal, given only as a lower bound on Kd. The protocol:
(§1) The affinities for eC5a and c5 at various concentrations were measured. […] The concentrations of 0.625 and 0 nM were repeated once. Using the SPR technology, the association and dissociation rates were measured, and binding affinity was determined.

In a further assay the target is T8, human endogenous C5a (human, UniProt P01031 678-751, limits assumed).
T8 construct: Endogenous human C5a; also called eC5a
T8 sequence: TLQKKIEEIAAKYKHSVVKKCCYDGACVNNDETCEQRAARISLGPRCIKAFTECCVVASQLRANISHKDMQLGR
The assay can be described thus: SPR (Biacore T200), antibody on CM5 chip, antigen 0-10 nM. The method, then:
as §1
(Surface plasmon resonance follows binding to a sensor surface in real time, without labels.)

The target of assay [7] is T7, native full-length human complement …. Nature of the assay: ELISA, plate coated with human native C5, full-length antibody titrated, OD410.
For assay [8], the target named is T2, C5a-R40A. Nature of the assay: ELISA on the coated C5a protein, antibody titrated, OD410. For orientation: An ELISA detects its analyte on a solid surface through an enzyme-linked reagent.
The target in assay [9] is T4, C5a-T33A. Described as above.
Assay [10] addresses T5, C5a-Q36A. The assay is described as above.
For assay [11], the target named is T7, native full-length human complement …. The assay can be described thus: SPR (Biacore T200), antibody on CM5 chip, antigen 0-10 nM. The protocol:
as §1

T7 sequence (P01031 19-673 limits assumed, one chain of several): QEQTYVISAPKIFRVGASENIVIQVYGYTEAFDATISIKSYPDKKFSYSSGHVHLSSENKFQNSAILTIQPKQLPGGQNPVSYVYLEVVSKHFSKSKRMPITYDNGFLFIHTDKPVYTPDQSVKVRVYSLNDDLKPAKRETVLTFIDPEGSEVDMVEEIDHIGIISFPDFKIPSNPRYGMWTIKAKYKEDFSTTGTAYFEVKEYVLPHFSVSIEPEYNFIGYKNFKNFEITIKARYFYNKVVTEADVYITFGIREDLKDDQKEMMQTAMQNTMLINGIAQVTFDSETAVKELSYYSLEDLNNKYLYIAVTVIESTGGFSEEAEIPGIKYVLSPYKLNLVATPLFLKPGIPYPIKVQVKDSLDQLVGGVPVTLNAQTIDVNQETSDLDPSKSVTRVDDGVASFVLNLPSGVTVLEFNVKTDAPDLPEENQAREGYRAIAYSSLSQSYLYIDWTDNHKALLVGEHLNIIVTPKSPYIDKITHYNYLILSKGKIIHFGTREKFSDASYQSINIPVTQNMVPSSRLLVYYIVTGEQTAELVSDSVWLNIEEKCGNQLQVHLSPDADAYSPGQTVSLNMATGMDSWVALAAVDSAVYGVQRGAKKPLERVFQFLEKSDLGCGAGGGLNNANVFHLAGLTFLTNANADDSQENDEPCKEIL
Description for human recombinant C5a: Monoclonal scFv antibodies were selected and subjected to ligand binding assays. The binding assay was designed to identify scFv antibodies that bound human recombinant C5a or endogenous C5a. Briefly, a 96-well plate was coated with human rC5a or eC5a in PBS at 0.1 µg/well and left overnight at 4° C. Before loading the scFv antibodies, the plates were washed with TBST, blocked for 1-2 hours at 37° C. using 5% milk and washed again with TBST. Each scFv sample was first diluted to 10 µg/mL, and 150 µL was added to the first row of wells. The 10 µg/mL scFv samples were then serially diluted at a 1:3 ratio and added to the remaining wells. After incubating for 1 hour at 37° C., followed by washing with TBST 6 times, 100µl of the primary antibody and secondary antibody mixture (mouse anti-flag (1:2500) and anti-mouse FC-AP (1:2000)) was added to each well. After incubation for 1 hour under 37° C., the plate was washed 3 times using TBST. pNPP was then added at 50 µL/well and incubated for 10-20 minutes at 37° C. 50 µL 3 M NaOH was used to stop the reaction. The ELISA results (OD410) were then analyzed and the binding curves were generated by PRISM.

B1: Cab03 scFv (scFv, V domains shown)
VH: EVQLVESGGGLVQPGGSLKVSCAASGFIFSDYYMQWVRQAPGKGPEWVGLIRKKVNGGTTEYAASVKGRFTISRDDSKSIVYLQMSSLKIEDTAVYYCVSRAGPPGLTWGQGVLVTVSS
VL: DIVLTQTPLSLAVSPGEPASISCRSSQSLLASDGYTYLDWYLQKPGQSPQILIYGGSNRASGVPDRFSGRGSGTDFTLKITKVEAEDVGVYYCLQHRALPPTFGQGTKLEIK
For B1, the “ROS IC50” value in assay [1] was 1.41 nM.

B2: Cab15 scFv (scFv, V domains shown)
VH: VVQLVESGGGLVQPGGSLKVSCAASGFTFSDYYMQWVRQAPGKGPEWVGLIRNKAIGETTEYAASVKGRFTISRDDSKSIVYLQMSSLKPEDTAVYYCAGRLGPPGLSWGQGVLVTVSS
VL: DIVMTQNPLSLPVTPGEPASISCRSSQSLLATDGYTYLDWYLQKPGQSPQVLIYGGSKRASGVPDRFSGSGSGTDFTLKITKVEAEDVGIYYCMQHKALPPTFGQGTKLEIK
Consider B2, for which the “ROS IC50” value in assay [1] came out at 0.64 nM.

B3: Cab43 (reformatted as human IgG1) (antibody, V domains shown)
VH: EVQLVESGGGLVQPGGSLRLSCAASGFTFSNYYIQWVRQAPGKGPEWVGLIRNKAIGETTEFAASVKGRFTISRDDSKNSVYLQMNSLKTEDTAVYYCAGRLGPPGLTWGQGVLVTVSS
VL: DIVMTQSPLSLPVTPGEPASISCRSSQNLLATDGYTYLDWYLQKPGQSPQLLIYGGSKRASGVPDRFSGSGSGTDFTLKISRVEAEDVGVYYCLQHRALPPTFGQGTKLEIK
As for B3, the “ROS IC50” value in [2] stood at 0.62 nM.

B4: Cab44-IgG1 (antibody, V domains shown)
VH: EVQLVESGGGLVQPGGSLRLSCAASGFTFSNYYIQWVRQAPGKGPEWVGLIRNKAIGETTEFAASVKGRFTISRDDSKNSVYLQMNSLKTEDTAVYYCAGRLGPPGLTWGQGVLVTVSS
VL: DIVMTQSPLSLPVTPGEPASISCRSSQSLLATDGYEYLDWYLQKPGQSPQLLIYGASNRASGVPDRFSGSGSGTDFTLKISRVEAEDVGVYYCLQHKALPPTFGQGTKLEIK
notes: Full-length human IgG1
Turning to B4, the “ROS IC50” value in [2] came to 0.51 nM. Also, the binding result in the assay with C5a-R40A [3], with C5a-E32A, in the assay with C5a-T33A [4] and in the assay with C5a-Q36A [5] was “binds” throughout.

B5: Cab04 scFv (scFv, V domains shown)
VH: EVQLVQSGGGLVQPGGSLKVSCAASGFTFSDYYMQWVRQAPGKGPEWVGLIRNKAIGGTTQYAASVKGRFTISRDDSKSIVYLQMSSLKTEDTAVYYCVSRAGPPGLSWGQGVVVTVSS
VL: DIVMIQTPLSLPVTPGEPASISCRSSQRLLHTDGYTYLDWYLQKPGQSPQLLIYGGSNRASGVPDRFSGSGSGSDFTLKISKVEAEDVGVYYCLQHKALPLTFGGGTKLEIK
Take B5: the “ROS IC50” value in [1] was 1.87 nM.

B6: Cab05 scFv (scFv, V domains shown)
VH: EMQLVESGGGLVQPGGSLRLSCAASGFTFSDYYMQWVRQAPGKGPEWVGLIRNKAVGGTTQYAASVKGRFTISRDDSKNSVYLQMNSLKTEDTAVYYCVSRAGPPGLSWGQGVLVTVSS
VL: DIVMTQSPLSLPVTPGEPASISCRSSQSLLASDGYNYIDWYLQKPGQSPQLLIYGGSNRASGVPDRFSGSGSGTDFTLKISRVEAEDVGVYFCLQHRALPPTFGQGTKLEIK
notes: scFv
Consider B6, for which, in the assay with human recombinant C5a, the EC50 (read off the curve) (as a rule, the concentration at which the effect is half-maximal) was about 0.03 µg/mL. For the same molecule, the “ROS IC50” value in assay [2] and in [1] was 1.56 nM each time.

B7: Cab05-IgG4 (antibody, V domains shown)
VH: EMQLVESGGGLVQPGGSLRLSCAASGFTFSDYYMQWVRQAPGKGPEWVGLIRNKAVGGTTQYAASVKGRFTISRDDSKNSVYLQMNSLKTEDTAVYYCVSRAGPPGLSWGQGVLVTVSS
VL: DIVMTQSPLSLPVTPGEPASISCRSSQSLLASDGYNYIDWYLQKPGQSPQLLIYGGSNRASGVPDRFSGSGSGTDFTLKISRVEAEDVGVYFCLQHRALPPTFGQGTKLEIK
notes: Full-length human IgG4 with a human kappa or lambda light chain constant domain
As to B7, in assay [6], the Kd – broadly, the free concentration of one partner at which half of the binding sites on the other are occupied at equilibrium, for simple one-to-one binding – was over 100 nM. In the assay with human endogenous C5a, binding was characterised by a dissociation constant (Kd) of 0.105 nM; the off-rate (koff) (as a rule, the rate constant with which the complex falls apart) came to 4.22e-05 s⁻¹; the on-rate (kon) (in general, a measure of how fast the partners come together) worked out at 402000 M⁻¹ s⁻¹. Also, in [7], the concentration for a half-maximal effect (EC50 (read off the curve)) is about 0.03 µg/mL.

B8: Cab35-IgG1 (antibody, V domains shown)
VH: EMQLVESGGGLVQPGGSLRLSCAASGFTFSDYYMQWVRQAPGKGPEWVGLIRNKAVGETTQYAASVKGRFTISRDDSKNSVYLQMNSLKTEDTAVYYCVSRAGPPGLSWGQGVLVTVSS
VL: DIVMTQSPLSLPVTPGEPASISCRSSQSLLASDGYNYIDWYLQKPGQSPQLLIYGGSNRASGVPDRFSGSGSGTDFTLKISRVEAEDVGVYFCLQHRALPPTFGQGTKLEIK
For B8, the “ROS IC50” value in assay [2] was 1.28 nM.

B9: Cab45-IgG1 (antibody, V domains shown)
VH: EVQLVESGGGLVQPGGSLRLSCAASGFTFSDYYIQWVRQAPGKGPEWVGLIRNKAVGGTTTYAASVKGRFTISRDDSKNSAYLQMNSLKTEDTAVYFCVSRAGPPGLSWGQGVLVTVSS
VL: DIVMTQSPLSLPVTPGEPASISCRSSQNLLATDGYTYLDWYLQKPGQSPQLLIYGGSKRASGVPDRFSGSGSGTDFTLKISRVEAEDVGVYYCLQHRALPPTFGQGTKLEIK
notes: Full-length human IgG1
For the molecule B9, the “ROS IC50” value in assay [2] was 0.64 nM. The binding result with C5a-R40A [8], with C5a-T33A [9] and in the assay with C5a-Q36A [10] was “binds” throughout.

B10: Cab38 (reformatted as human IgG1) (antibody, V domains shown)
VH: EMQLVESGGGLVQPGGSLRLSCAASGFTFSDYYMQWVRQAPGKGPEWVGLIRNKAVGHTTQYAASVKGRFTISRDDSKNSVYLQMNSLKTEDTAVYYCVSRAGPPGLSWGQGVLVTVSS
VL: DIVMTQSPLSLPVTPGEPASISCRSSQSLLASDGYNYIDWYLQKPGQSPQLLIYGGSNRASGVPDRFSGSGSGTDFTLKISRVEAEDVGVYFCLQHRALPPTFGQGTKLEIK
Consider B10, for which the “ROS IC50” value in [2] worked out at 0.53 nM.

B11: INab308 (antibody, V domains shown)
VH: QVQLQQSGPQLVRPGTSVKISCKASGYSFTTFWMDWVKQRPGQGLEWIGRIDPSDSESRLDQRFKDRATLTVDKSSSTVYMQLSSPTSEDSAVYYCARGNDGYYGFAYWGQGTLVTVSS
VL: DIVLTQSPASLAVSLGQRATISCKASQSVDYDGDSYMKWYQQKPGQPPKLLIYAASNLQSGIPARFSGSGSGTDFTLNIHPVEEEDAATYYCQQSNEDPYTFGGGTKLEIK
In the case of B11, in assay [11], binding was characterised by a dissociation constant (Kd) of 0.743 nM, the koff is 0.000218 s⁻¹ and the kon amounted to 293000 M⁻¹ s⁻¹.
